According to article PMC9035363 (Cell Reports, 2022):
Read-outs that look alike come from different tables or passages of the source.

B1: LY-CoV1404 (bebtelovimab), full-length human IgG1 mAb (antibody, V domains shown)
VH: QITLKESGPTLVKPTQTLTLTCTFSGFSLSISGVGVGWLRQPPGKALEWLALIYWDDDKRYSPSLKSRLTISKDTSKNQVVLKMTNIDPVDTATYYCAHHSISTIFDHWGQGTLVTVSS
VL: QSALTQPASVSGSPGQSITISCTATSSDVGDYNYVSWYQQHPGKAPKLMIFEVSDRPSGISNRFSGSKSGNTASLTISGLQAEDEADYYCSSYTTSSAVFGGGTKLTVL
B2: LY-CoV1404 Fab (papain digestion) (Fab, V domains shown)
VH: B1 VH
VL: B1 VL

Experiments:
[1] = biological target: T1, SARS-CoV-2 S protein, wild type, on CHO cells (SARS-CoV-2, Wuhan (GenBank MN908947.3), UniProt P0DTC2); test: cell-based or functional assay
[2] = biological target: SARS-CoV-2 RBD (monomeric) (SARS-CoV-2, Wuhan reference …, UniProt P0DTC2); test: SPR
[3] = biological target: T1, SARS-CoV-2 S protein, wild type, on CHO …; test: cell-based or functional assay; remark: listed apart in the source
[4] = biological target: T2, RBD-Fc, reference sequence (SARS-CoV-2, Wuhan reference …, UniProt P0DTC2); test: SPR
[5] = biological target: T2, RBD-Fc, reference sequence; test: SPR; remark: listed apart in the source

| Binder | authentic SARS-CoV-2/MT020880.1 neutralisation, IFA, IC50 (S-ACE2) [1] | Kd [2] | PRNT, Italy-INMI1 isolate, combination study, LY-CoV1404 alone, IC50 [3] | PRNT, authentic Italy-INMI1 isolate, IC50 [3] | PRNT, authentic WA isolate, IC50 [3] | Kd [4] | Kd [5] |
| --- | --- | --- | --- | --- | --- | --- | --- |
| B1 | 0.009 to 0.0221 µg/mL | 1.58 nM | 0.015 µg/mL | 0.01 µg/mL | 0.002 µg/mL | – | – |
| B2 | – | – | – | – | – | 3.71 nM | 4.01 nM |
